# In patent US20140219913A1 (AbbVie / Abbott, published 2014):
# B1: RAB021 (other)
# VH: EVQLVQSGAEVKKPGASVKVSCKASGYTFTKYWLGWVRQAPGQGLEWMGDIYPGYDYTHYNEKFKDRVTLTTDTSTSTAYMELRSLRSDDTAVYYCARSDGSSTYWGQGTLVTVSS
# VL: AMHVAQPAVVLASSRGIASFVCEYASPGKYTEVRVTVLRQADSQVTEVCAATYMMGNELTFLDDSICTGTSSGNQVNLTIQGLRAMDTGLYICKVELMYPPPYYEGIGNGTQIYVIDPEPCPDSDQEPKSSDKTHTSPDVLMTQTPLSLPVTPGEPASISCTSSQNIVHSNGNTYLEWYLQKPGQSPQLLIYKVSNRFSGVPDRFSGSGSGTDFTLKISRVEAEDVGVYYCFQVSHVPYTFGGGTKVEIKR
# notes: rDVD-Ig with LEA29Y on the light chain only and a QH linker; also called RAB021H; RAB021L
# B2: RAB015 (other)
# VH: B1 VH
# VL: AMHVAQPAVVLASSRGIASFVCEYASPGKYTEVRVTVLRQADSQVTEVCAATYMMGNELTFLDDSICTGTSSGNQVNLTIQGLRAMDTGLYICKVELMYPPPYYEGIGNGTQIYVIDPEPCPDSDTVAAPSVFIFPPDVLMTQTPLSLPVTPGEPASISCTSSQNIVHSNGNTYLEWYLQKPGQSPQLLIYKVSNRFSGVPDRFSGSGSGTDFTLKISRVEAEDVGVYYCFQVSHVPYTFGGGTKVEIKR
# notes: rDVD-Ig with LEA29Y on the light chain only and a long linker; also called RAB015H; RAB015L
# B3: RAB019 (other)
# VH: AMHVAQPAVVLASSRGIASFVCEYASPGKYTEVRVTVLRQADSQVTEVCAATYMMGNELTFLDDSICTGTSSGNQVNLTIQGLRAMDTGLYICKVELMYPPPYYEGIGNGTQIYVIDPEPCPDSDQEPKSSDKTHTSPEVQLVQSGAEVKKPGASVKVSCKASGYTFTKYWLGWVRQAPGQGLEWMGDIYPGYDYTHYNEKFKDRVTLTTDTSTSTAYMELRSLRSDDTAVYYCARSDGSSTYWGQGTLVTVSS
# VL: B1 VL
# notes: rDVD-Ig with LEA29Y on both chains and QH linkers; also called RAB019H; RAB019L
# B4: RAB013 (other)
# VH: AMHVAQPAVVLASSRGIASFVCEYASPGKYTEVRVTVLRQADSQVTEVCAATYMMGNELTFLDDSICTGTSSGNQVNLTIQGLRAMDTGLYICKVELMYPPPYYEGIGNGTQIYVIDPEPCPDSDASTKGPSVFPLAPEVQLVQSGAEVKKPGASVKVSCKASGYTFTKYWLGWVRQAPGQGLEWMGDIYPGYDYTHYNEKFKDRVTLTTDTSTSTAYMELRSLRSDDTAVYYCARSDGSSTYWGQGTLVTVSS
# VL: B2 VL
# notes: rDVD-Ig with LEA29Y on both chains and long linkers; also called RAB013H; RAB013L
# B5: RAB007 (other)
# VH: AMHVAQPAVVLASSRGIASFVCEYASPGKYTEVRVTVLRQADSQVTEVCAATYMMGNELTFLDDSICTGTSSGNQVNLTIQGLRAMDTGLYICKVELMYPPPYYEGIGNGTQIYVIDPEPCPDSDASTKGPEVQLVQSGAEVKKPGASVKVSCKASGYTFTKYWLGWVRQAPGQGLEWMGDIYPGYDYTHYNEKFKDRVTLTTDTSTSTAYMELRSLRSDDTAVYYCARSDGSSTYWGQGTLVTVSS
# VL: AMHVAQPAVVLASSRGIASFVCEYASPGKYTEVRVTVLRQADSQVTEVCAATYMMGNELTFLDDSICTGTSSGNQVNLTIQGLRAMDTGLYICKVELMYPPPYYEGIGNGTQIYVIDPEPCPDSDTVAAPDVLMTQTPLSLPVTPGEPASISCTSSQNIVHSNGNTYLEWYLQKPGQSPQLLIYKVSNRFSGVPDRFSGSGSGTDFTLKISRVEAEDVGVYYCFQVSHVPYTFGGGTKVEIKR
# notes: rDVD-Ig with LEA29Y on both chains; also called RAB007H; RAB007L
# B6: RAB008 (other)
# VH: B5 VH
# VL: DVLMTQTPLSLPVTPGEPASISCTSSQNIVHSNGNTYLEWYLQKPGQSPQLLIYKVSNRFSGVPDRFSGSGSGTDFTLKISRVEAEDVGVYYCFQVSHVPYTFGGGTKVEIKR
# notes: rDVD-Ig with LEA29Y on the heavy chain only; also called RAB008H; RAB008L
# B7: RAB009 (other)
# VH: B1 VH
# VL: B5 VL
# notes: rDVD-Ig with LEA29Y on the light chain only; also called RAB009H; RAB009L
# B8: RAB011 (other)
# VH: AMHVAQPAVVLASSRGIASFVCEYASPGKYTEVRVTVLRQADSQVTEVCAATYMMGNELTFLDDSICTGTSSGNQVNLTIQGLRAMDTGLYICKVELMYPPPYYEGIGNGTQIYVIDPEPCPDSDASTKGPQVQLQESGPGLVKPSETLSLTCTVSGFSLIGYDLNWIRQPPGKGLEWIGIIWGDGTTDYNSAVKSRVTISKDTSKNQFSLKLSSVTAADTAVYYCARGGYWYATSYYFDYWGQGTLVTVSS
# VL: DIQMTQSPSSLSASVGDRVTITCRASQSISNNLNWYQQKPGKAPKLLIYYTSRFHSGVPSRFSGSGSGTDFTFTISSLQPEDIATYYCQQEHTLPYTFGQGTKLEIKR
# notes: rDVD-Ig with LEA29Y on the heavy chain only and anti-NGF variable domains; also called RAB011H; RAB011L
# B9: RAB012 (other)
# VH: QVQLQESGPGLVKPSETLSLTCTVSGFSLIGYDLNWIRQPPGKGLEWIGIIWGDGTTDYNSAVKSRVTISKDTSKNQFSLKLSSVTAADTAVYYCARGGYWYATSYYFDYWGQGTLVTVSS
# VL: AMHVAQPAVVLASSRGIASFVCEYASPGKYTEVRVTVLRQADSQVTEVCAATYMMGNELTFLDDSICTGTSSGNQVNLTIQGLRAMDTGLYICKVELMYPPPYYEGIGNGTQIYVIDPEPCPDSDTVAAPDIQMTQSPSSLSASVGDRVTITCRASQSISNNLNWYQQKPGKAPKLLIYYTSRFHSGVPSRFSGSGSGTDFTFTISSLQPEDIATYYCQQEHTLPYTFGQGTKLEIKR
# notes: rDVD-Ig with LEA29Y on the light chain only and anti-NGF variable domains; also called RAB012H; RAB012L
# B10: Anti-NGF (antibody, V domains shown)
# VH: B9 VH
# VL: B8 VL
# Molecular target: T1, Recombinant human B7-1/CD80 Fc chimera (Cat. 140-B1-100, R&D Systems) (human, UniProt P33681 35-242)
# T1 construct: extracellular domain; also called B7-1 antigen; Fc part of the bought chimera not given; not described
# T1 sequence (looked up): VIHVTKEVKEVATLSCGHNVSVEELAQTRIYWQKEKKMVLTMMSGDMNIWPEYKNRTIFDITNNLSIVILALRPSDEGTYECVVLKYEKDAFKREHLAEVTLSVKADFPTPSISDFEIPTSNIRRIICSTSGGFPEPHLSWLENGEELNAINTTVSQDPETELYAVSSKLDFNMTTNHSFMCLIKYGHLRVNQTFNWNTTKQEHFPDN
# Assay: direct bind ELISA, coated recombinant human B7-1/CD80 Fc chimera
# Experimental: Enzyme Linked Immunosorbent Assays (ELISA) to screen for antibodies that bind a desired target antigen were performed as follows. High bind ELISA plates (Corning Costar #3369, Acton, Mass.) were coated with 100 μL/well of 10 μg/ml of desired target antigen (R&D Systems, Minneapolis, Minn.) or desired target antigen extra-cellular domain/FC fusion protein (R&D Systems, Minneapolis, Minn.) or monoclonal mouse anti-polyHistidine antibody (R&D Systems #MAB050, Minneapolis, Minn.) in phosphate buffered saline (10×PBS, Abbott Bioresearch Center, Media Prep#MPS-073, Worcester, Mass.) overnight at 4° C. Plates were washed four times with PBS containing 0.02% Tween 20. Plates were blocked by the addition of 300 μL/well blocking solution (non-fat dry milk powder, various retail suppliers, diluted to 2% in PBS) for ½ hour at room temperature. Plates were washed four times after blocking with PBS containing 0.02% Tween 20.
# One hundred microliters of 10 ng/mL goat anti-human IgG-FC specific HRP conjugated antibody (Southern Biotech #2040-05, Birmingham, Ala.) was added to each well of the desired target antigen plate or anti-polyHistidine antibody/Histidine tagged desired target antigen plate. Alternatively, one hundred microliters of 10 ng/mL goat anti-human IgG-kappa light chain specific HRP conjugated antibody (Southern Biotech #2060-05 Birmingham, Ala.) was added to each well of the desired target antigen/FC fusion plate and incubated for 1 hour at room temperature. Plates were washed 4 times with PBS containing 0.02% Tween 20.
# One hundred microliters of enhanced TMB solution (Neogen Corp. #308177, K Blue, Lexington, Ky.) was added to each well and incubated for 10 minutes at room temperature. The reaction was stopped by the addition of 50 μL 1N sulphuric acid. Plates were read spectrophotometrically at a wavelength of 450 nm
Binder,EC50 [nM],binding result
B1,2.5,
B2,34.9,
B3,,no binding
B4,21.2,

# Molecular target: T1, Recombinant human B7-1/CD80 Fc chimera …
# Assay: competitive ELISA; coated CD28 Fc, biotinylated B7-1/CD80 Fc (2 nM), construct titrated
# Experimental: (§1) ELISA plates (Nunc, MaxiSorp, Rochester, N.Y.) were incubated overnight at 4° C. with Recombinant Human CD28 Fc Chimera (Cat. #342-CD-200). Plates were washed three times in washing buffer (PBS containing 0.05% Tween 20), and blocked for 1 hour at 25° C. in blocking buffer (PBS containing 1% BSA). Wells were washed three times, and serial dilutions of each antibody or DVD-Ig in PBS containing 0.1% BSA were added to the wells and incubated at 25° C. for 1 hour. The wells were washed three times, and biotinylated antigen (2 nM) was added to the plates and incubated for 1 hour at 25° C. The wells were washed three times and incubated for 1 hour at 25° C. with streptavidin-HRP (KPL #474-3000, Gaithersburg, Md.). The wells were washed three times, and 100 μl of ULTRA-TMB ELISA (Pierce, Rockford, Ill.) was added per well. Following color development the reaction was stopped with 1N HCL and absorbance at 450 nm was measured. Recombinant human B7-1/CD80 Fc chimera (Cat. 140-B1-100, R&D Systems, Minneapolis, Minn.) was used.
row,Binder,EC50 [nM]
1,B5,6.6
2,B6,1.5
3,B1,2.4
4,B2,78.9
5,B7,2.7
6,B8,1.6
7,B9,2.5
8,B4,2

# Molecular target: T2, Recombinant human B7-2/CD86 Fc chimera (Cat. 141-B2-100, R&D Systems) (human, UniProt P42081 26-245)
# T2 construct: Fc part of the bought chimera not given; not described
# T2 sequence (looked up): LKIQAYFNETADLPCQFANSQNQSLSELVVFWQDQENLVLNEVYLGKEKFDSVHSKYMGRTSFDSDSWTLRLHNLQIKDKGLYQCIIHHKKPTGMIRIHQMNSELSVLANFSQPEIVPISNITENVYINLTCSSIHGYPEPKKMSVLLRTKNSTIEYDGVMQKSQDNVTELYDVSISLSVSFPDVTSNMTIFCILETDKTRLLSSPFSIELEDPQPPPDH
# Assay: competitive ELISA; coated CD28 Fc, biotinylated B7-2/CD86 Fc, construct titrated
# Experimental: as §1
# Recombinant human B7-2/CD86 Fc chimera (Cat. 141-B2-100, R&D Systems, Minneapolis, Minn.) was used.
row,Binder,EC50 [nM]
1,B5,2.1
2,B6,1
3,B1,0.8
4,B7,0.3
5,B8,1.3
6,B9,4.2
7,B4,0.5

# Molecular target: NGF
# Assay: cell-based or functional assay
Binder,"C-terminal Bioassay Mean (IC50, nM): Cell Impedance assay [nM]","C-terminal Bioassay Mean (IC50, nM): pERK assay [nM]"
B10,7.8,0.6
